Data published in patent US20240109974A1 (SHANDONG SIMCERE BIOPHARMACEUTICAL, published 2024).
Numbering of substitutions follows the chain as printed.

T1: Cynomolgus TNFR2-His (Sino 90102-C08H) (cynomolgus monkey, UniProt A0A2K5VET2 132-366)
T1 construct: Bought protein; also called cynomolgus monkey TNFR2; recombinant cynomolgus monkey TNFR2 protein; not shown: His tag
T1 sequence: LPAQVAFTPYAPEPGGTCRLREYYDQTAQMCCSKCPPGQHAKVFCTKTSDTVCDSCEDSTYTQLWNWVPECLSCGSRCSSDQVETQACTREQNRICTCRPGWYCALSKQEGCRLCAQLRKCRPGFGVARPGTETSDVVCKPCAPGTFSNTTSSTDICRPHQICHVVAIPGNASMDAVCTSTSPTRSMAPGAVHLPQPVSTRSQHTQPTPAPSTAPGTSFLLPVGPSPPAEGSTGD

T2: human TNFR2 (Novoprotein, Cat #C830) (human, UniProt P20333 23-257, limits assumed)
T2 construct: construct not described; also called human TNFR2 protein
T2 sequence (looked up): T1 sequence with G16S, P36S, Q117P, H164N, A210E, G216S, V223M

B1: 219-Hu3 (antibody, V domains shown)
VH: QVQLVQSGAEVKKPGSSVKVSCKASGYSFTNYWMNWVRQAPGQGLEWMGMIHPSDTETRLNQNFKDRVTITADKSTSTAYMELSSLRSEDTAVYYCARGEGLGAARSVSMDYWGQGTLVTVSS
VL: DIQMTQSPSSLSASVGDRVTITCRASQDISNYLNWYQQKPDGTVKLLIYYTAILHSGVPSRFSGSGSGTDYSLTISSLQPEDFATYFCQQGNTLPWTFGQGTKVEIK
notes: also called VH5 + VL5
B2: 219-Hu5 (antibody, V domains shown)
VH: B1 VH with A72V
VL: B1 VL
notes: also called VH7 + VL5
B3: 219-Hu2 (antibody, V domains shown)
VH: B1 VH with R67K, V68A
VL: B1 VL
notes: also called VH4 + VL5
B4: 219-Hu1 (antibody, V domains shown)
VH: B1 VH with S16A, G44R, A72R, K74T, T76A
VL: B1 VL
notes: also called VH3 + VL5
B5: 219-Hu4 (antibody, V domains shown)
VH: B1 VH with R38K, M48I, R67K, V68A, I70L, A72V
VL: B1 VL
notes: also called VH6 + VL5
B6: 001-Hu5 (antibody, V domains shown)
VH: EVQLVESGGGLVQPGGSLRLSCAASGFAFSTYDLSWVRQAPGKGLEWVAYINNGGISTYYSDTVKGRFTISRDNAKNTLYLQMNSLRAEDTAVYYCVRGPFYGSANYFDYWGQGTLVTVSS
VL: DIQMTQSPSSLSASVGDRVTITCRTSESIYSNLPWYQQKPGKSPKLLVYDATKLAEGVPSRFSGSGSGTDYTLTISSLQPEDFATYYCQHFWVTPWTFGQGTKVEIK
notes: Humanized form of #001; also called VH1 + VL4
B7: 001-Hu2 (antibody, V domains shown)
VH: B6 VH with T78S
VL: B6 VL with V48I, Y71F
notes: Humanized form of #001; also called VH2 + VL2
B8: 001-Hu4 (antibody, V domains shown)
VH: B6 VH with T78S
VL: B6 VL
notes: Humanized form of #001; also called VH2 + VL4
B9: 001-Hu1 (antibody, V domains shown)
VH: B6 VH
VL: B6 VL with S43A, V48L
notes: Humanized form of #001; also called VH1 + VL1
B10: 001-Hu3 (antibody, V domains shown)
VH: B6 VH
VL: B6 VL with S43A, V48I
notes: Humanized form of #001; also called VH1 + VL3

These binders were tested against T1, Cynomolgus TNFR2-His (Sino 90102-C08H) (assay: ELISA, cynomolgus TNFR2-His coated; EC50 against 219-WT).
Protocol: (§1) The test humanized antibody against TNFR2 (as described in Example 1, the antibody was comprised of variable regions linked to IgG-Fc; the WT chimeric antibody also adopted the IgG-Fc structure) was subjected to 3.33-fold gradient dilution, loaded with 100 μl/well, and incubated with shaking at room temperature for 1.5 hours. The plate was washed, and then a working solution of murine anti-human IgG Fc-HRP (diluted at 1:10000) was added, loaded with 100 μl/well, and incubated with shaking at room temperature for 1.0 hour. The plate was washed again, and then the substrate TMB of HRP was added to develop colour. A stop solution was added to stop the reaction, and then a microplate reader (MD 13) was used to read the absorbance value. The binding curve of an antibody was drawn with antibody concentration as the abscissa and corresponding OD value as the ordinate, and fitted with four parameters (GraphPad Prism9) to calculate the EC50 value. The smaller the EC50 value, the stronger the binding ability of an antibody to human/cynomolgus monkey TNFR2. The binding effect of a humanized antibody was normalized to its corresponding human-murine chimeric antibody WT (see SEQ ID NOs: 38-43 for the sequence). The higher the percentage value, the better the binding effect of the humanized antibody. The results of binding of an anti-TNFR2 antibody to a human TNFR2 protein are shown in FIG. 1 and Table 4, and the results of binding of an anti-TNFR2 antibody to cynomolgus monkey TNFR2 are shown in FIG. 2 and Table 4.

Row | % Relative activity (WT antibody/test antibody) [%] | Binder
1 | 90.4 | B1
2 | 93.4 | B2
3 | 102 | B3
4 | 77.5 | B4
5 | 93.1 | B5

Each binder was assayed against T1, Cynomolgus TNFR2-His (Sino 90102-C08H) (assay: ELISA, cynomolgus TNFR2-His coated; EC50 against 001-WT).
Protocol: as §1

Row | % Relative activity (WT antibody/test antibody) [%] | Binder
6 | 105 | B6
7 | 107 | B7
8 | 106 | B8
9 | 108 | B9
10 | 105 | B10

The binders below were run against T2, human TNFR2 (Novoprotein, Cat #C830) (assay: competition ELISA, competitor human TNFα-Biotin; AUC against 219-WT).
Protocol: 1 μg/ml human TNFR2 (Novoprotein, Cat #C830) was pre-coated with 100 μl/well […] in an ELISA plate. All the test TNFR2 antibodies were subjected to 2.5-fold gradient dilution from the highest concentration of 30 μg/ml; the diluted antibodies were mixed with 15 ng/ml human TNFα-Biotin (Acro Biosystem, Cat #TNA-H82E3) in equal volume, respectively; the resulting mixture was added to the ELISA plate at 100 μl/well, and incubated with shaking at room temperature for 2.0 hours. The plate was washed, and then a Streptavidin-HRP working solution (diluted at 1:10000) was added at 100 μl/well, and the mixture was incubated with shaking at room temperature for 40 minutes. The plate was washed again, and then the substrate TMB of HRP was added to develop colour. A stop solution was added to stop the reaction, and then a microplate reader (MD 13) was used to read the absorbance value. The inhibitory curve of an antibody was drawn with antibody concentration as the abscissa and corresponding OD value as the ordinate, and fitted with four parameters (GraphPad Prism9) to calculate the IC50 value. The smaller the IC50 value, the stronger the ability of an antibody to inhibit the binding of human TNFα to human TNFR2. The blocking effect of a humanized antibody was normalized to its corresponding human-murine chimeric antibody WT. The higher the percentage value, the better the inhibitory effect of the humanized antibody.

Row | % Relative activity (WT antibody/test antibody) [%] | Binder
11 | 103 | B1
12 | 106 | B2
13 | 104 | B3
14 | 105 | B4
15 | 105 | B5
